Consider seven substances from the supplement of paper PMC11246515.

± gives the standard deviation of the averaged measurements.

This data set in a line: total protein half-life in vivo (active degradation + dilution); higher = more stable protein.
Setting [1] is: E. coli NCM3722 delta-clpP delta-lon delta-hslV, growth: N-lim chemostat, doubling time 6 h.
The mark [2] stands for this setting: E. coli NCM3722 delta-clpP, growth: N-lim chemostat, doubling time 6 h.
The mark [3] stands for this setting: wild type E. coli NCM3722, growth: C-lim chemostat, doubling time 3 h.
The mark [4] stands for this setting: wild type E. coli NCM3722, growth: C-lim chemostat, doubling time 6 h.
[5] abbreviates: wild type E. coli NCM3722, growth: C-lim chemostat, doubling time 12 h.
[6] abbreviates: wild type E. coli NCM3722, growth: N-lim chemostat, doubling time 6 h.
[7] abbreviates: E. coli NCM3722 delta-lon, growth: N-lim chemostat, doubling time 6 h.
[8] abbreviates: E. coli NCM3722 delta-smpB, growth: N-lim chemostat, doubling time 6 h.
Setting [9] is: wild type E. coli NCM3722, growth: N-lim chemostat, doubling time 12 h.
The mark [10] stands for this setting: wild type E. coli NCM3722, growth: P-lim chemostat, doubling time 6 h.
[11] abbreviates: wild type E. coli NCM3722, growth: P-lim chemostat, doubling time 12 h.
Where [12] appears, read: E. coli NCM3722 delta-hslV, growth: N-lim chemostat, doubling time 6 h.

“MITHNFNTLDLLTSPVWIVSPFEEQLIYANSAAKLLMQDLTFSQLRTGPYSVSSQKELPKYLSDLQNQHDIIEILTVQRKEEETALSCRLVLRKLTETEPVIIFEGIEAPATLGLKASRSANYQRKKQGFYARFFLTNSAPMLLIDPSRDGQIVDANLAALNFYGYNHETMCQKHTWEINMLGRRVMPIMHEISHLPGGHKPLNFVHKLADGSTRHVQTYAGPIEIYGDKLMLCIVHDITEQKRLEEQLEHAAHHDAMTGLLNRRQFYHITEPGQMQHLAIAQDYSLLLIDTDRFKHINDLYGHSKGDEVLCALARTLESCARKGDLVFRWGGEEFVLLLPRTPLDTALSLAETIRVSVAKVSISGLPRFTVSIGVAHHEGNESIDELFKRVDDALYRAKNDGRNRVLAA”: the “total protein half-life in vivo” value runs as follows: under setting [1], 6.16 h; under setting [2], 1.51 h; under setting [3], 0.79 ± 0.18 h; under setting [4], 1.87 ± 0.062 h; under setting [5], 1.42 ± 0.21 h; under setting [6], 1.31 h.

For the substance “MSMIKSYAAKEAGGELEVYEYDPGELRPQDVEVQVDYCGICHSDLSMIDNEWGFSQYPLVAGHEVIGRVVALGSAAQDKGLQVGQRVGIGWTARSCGHCDACISGNQINCEQGAVPTIMNRGGFAEKLRADWQWVIPLPENIDIESAGPLLCGGITVFKPLLMHHITATSRVGVIGIGGLGHIAIKLLHAMGCEVTAFSSNPAKEQEVLAMGADKVVNSRDPQALKALAGQFDLIINTVNVSLDWQPYFEALTYGGNFHTVGAVLTPLSVPAFTLIAGDRSVSGSATGTPYELRKLMRFAARSKVAPTTELFPMSKINDAIQHVRDGKARYRVVLKADF”, the “total protein half-life in vivo” value is, setting by setting: under setting [1], 5.793 ± 0.025 h; under setting [2], 5.68 ± 0.17 h; under setting [7], 5.65 ± 0.11 h; under setting [8], 5.22 ± 1.4 h; under setting [3], 2.17 ± 0.36 h; under setting [4], 6.43 ± 1.3 h. The “total protein half-life in vivo” value is, setting by setting: under setting [5], 11 ± 1.4 h; under setting [6], 5.42 ± 0.12 h; under setting [9], 10.8 ± 0.24 h; under setting [10], 5.84 ± 0.26 h; under setting [11], 11.9 ± 0.73 h.

“MRRANDPQRREKIIQATLEAVKLYGIHAVTHRKIATLAGVPLGSMTYYFSGIDELLLEAFSSFTEIMSRQYQAFFSDVSDAPGACQAITDMIYSSQVATPDNMELMYQLYALASRKPLLKTVMQNWMQRSQQTLEQWFEPGTARALDAFIEGMTLHFVTDRKPLSREEILRMVERVAG”: the “total protein half-life in vivo” value runs as follows: under setting [1], 5.17 ± 0.91 h; under setting [2], 4.84 h; under setting [12], 4.98 ± 0.17 h; under setting [8], 4.87 ± 0.94 h; under setting [3], 2.46 ± 0.18 h; under setting [4], 4.6 h. Besides, the “total protein half-life in vivo” value runs as follows: under setting [5], 5.18 h; under setting [6], 5.11 h; under setting [9], 8.57 h; under setting [10], 4.06 h; under setting [11], 6.17 ± 0.89 h.

For the substance “MSTLEQTIGNTPLVKLQRMGPDNGSEVWLKLEGNNPAGSVKDRAALSMIVEAEKRGEIKPGDVLIEATSGNTGIALAMIAALKGYRMKLLMPDNMSQERRAAMRAYGAELILVTKEQGMEGARDLALEMANRGEGKLLDQFNNPDNPYAHYTTTGPEIWQQTGGRITHFVSSMGTTGTITGVSRFMREQSKPVTIVGLQPEEGSSIPGIRRWPTEYLPGIFNASLVDEVLDIHQRDAENTMRELAVREGIFCGVSSGGAVAGALRVAKANPDAVVVAIICDRGDRYLSTGVFGEEHFSQGAGI”, the “total protein half-life in vivo” value runs as follows: under setting [1], 6.17 ± 1.7 h; under setting [2], 4.5 ± 0.098 h; under setting [12], 4.55 ± 0.61 h; under setting [7], 4.81 ± 0.087 h; under setting [8], 4.19 ± 0.058 h; under setting [3], 2.95 ± 0.34 h. Further, the “total protein half-life in vivo” value runs as follows: under setting [4], 6.01 ± 0.21 h; under setting [5], 10.2 ± 0.28 h; under setting [6], 4.66 ± 0.086 h; under setting [9], 7.44 ± 0.39 h; under setting [10], 5.64 ± 0.13 h; under setting [11], 11.6 ± 0.56 h.

With “MAKNIPFKLILEKAKDYQADMTRFLRDMVAIPSESCDEKRVVHRIKEEMEKVGFDKVEIDPMGNVLGYIGHGPRLVAMDAHIDTVGIGNIKNWDFDPYEGMETDELIGGRGTSDQEGGMASMVYAGKIIKDLGLEDEYTLLVTGTVQEEDCDGLCWQYIIEQSGIRPEFVVSTEPTDCQVYRGQRGRMEIRIDVQGVSCHGSAPERGDNAIFKMGPILGELQELSQRLGYDEFLGKGTLTVSEIFFTSPSRCAVADSCAVSIDRRLTWGETWEGALDEIRALPAVQKANAVVSMYNYDRPSWTGLVYPTECYFPTWKVEEDHFTVKALVNAYEGLFGKAPVVDKWTFSTNGVSIMGRHGIPVIGFGPGKEPEAHAPNEKTWKSHLVTCAAMYAAIPLSWLATE”, the “total protein half-life in vivo” value runs as follows: under setting [12], 3.34 ± 0.23 h; under setting [7], over 8 h; under setting [8], 3.6 h; under setting [3], 2.93 ± 0.037 h; under setting [4], 5.23 ± 1.1 h; under setting [5], 8.78 ± 0.98 h. Besides, the “total protein half-life in vivo” value runs as follows: under setting [6], 3.7 ± 0.69 h; under setting [9], 6.26 ± 0.46 h; under setting [10], 5.23 h; under setting [11], 9.14 ± 1.7 h.

“MDLSQLTPRRPYLLRAFYEWLLDNQLTPHLVVDVTLPGVQVPMEYARDGQIVLNIAPRAVGNLELANDEVRFNARFGGIPRQVSVPLAAVLAIYARENGAGTMFEPEAAYDEDTSIMNDEEASADNETVMSVIDGDKPDHDDDTHPDDEPPQPPRGGRPALRVVK [P0AFZ3]”: the “total protein half-life in vivo” value is 5.705 ± 0.0087 h under setting [1]; 4.58 ± 0.2 h under setting [2]; 3.9 ± 0.61 h under setting [12]; 3.43 ± 0.19 h under setting [8]; 2.69 ± 0.14 h under setting [3]; 5.89 ± 0.079 h under setting [4]. Moreover, the “total protein half-life in vivo” value under setting [5] turned out to be 7.4 ± 0.38 h; the “total protein half-life in vivo” value under setting [6] stood at 3.26 h; the “total protein half-life in vivo” value under setting [9] came to 6.17 ± 3 h; the “total protein half-life in vivo” value under setting [10] is 3.73 ± 0.69 h; the “total protein half-life in vivo” value under setting [11] came to 7.51 ± 0.57 h.

Take P76347: the “total protein half-life in vivo” value was determined as 6.25 ± 0.88 h under setting [1], 1.86 h under setting [2] and 3.04 h under setting [9].
